Positions count from the first letter of the chain named.
B1: 15F9 (antibody, human IgG1, kappa, V domains shown)
VH: QVQLVQSGSELKKPGASVKVSCKASGYTFTNYGINWVRQAPGQGLEWMGWINPNTGETTYAEEFKGRFVFSLDTSVSTAYLQISSLKAEDTAVYFCARLYYGNRFDSWGQGTLVTVSS
VL: DIVMTQSPDSLAVSLGERATINCKSSQSLLNSGNQRNYLTWYQQKPGQPPKLLIYWASTRESGVPDRFSGSGSGTDFTLTISSLQAEDVAVYYCQNAYYYPLTFGGGTKVEIKR
B2: humanized antibody hz28G3-1.1 (antibody, human IgG1, kappa, V domains shown)
VH: QVQLVQSGAEVKKPGASVKVSCKTSGYSFTDYLMLWVRQAPGQGLEWMGNINPYYGRTTYALKFKGRVTMTVDRSTSTVYMELSSLRSEDTAVYYCARDGYSLRNAMDYWGQGTLVTVSS
VL: B1 VL with L30F, R36K, T40A, W56G, Y98H, Y99S, L102Y, G106Q
B3: humanized antibody hz28G3-1.2 (antibody, human IgG1, kappa, V domains shown)
VH: B2 VH with T24A, S28T, T59Y, K65Q
VL: B1 VL with L30F, R36K, T40A, W56G, Y98H, Y99S, L102Y, G106Q
B4: humanized antibody hz28G3-1.3 (antibody, human IgG1, kappa, V domains shown)
VH: B2 VH with P41H, G44S
VL: B1 VL with L30F, R36K, T40A, W56G, Y98H, Y99S, L102Y, G106Q
B5: humanized antibody hz28G3-1.4 (antibody, human IgG1, kappa, V domains shown)
VH: B2 VH with T24A, S28T, P41H, G44S, T59Y, K65Q
VL: B1 VL with L30F, R36K, T40A, W56G, Y98H, Y99S, L102Y, G106Q
B6: humanized antibody hz28G3-2.1 (antibody, human IgG1, kappa, V domains shown)
VH: B2 VH
VL: B1 VL with D9Y, L30F, R36K, T40A, W56G, S69T, Y98H, Y99S, L102Y, G106Q
B7: humanized antibody hz28G3-2.2 (antibody, human IgG1, kappa, V domains shown)
VH: B2 VH with T24A, S28T, T59Y, K65Q
VL: B1 VL with D9Y, L30F, R36K, T40A, W56G, S69T, Y98H, Y99S, L102Y, G106Q
B8: humanized antibody hz28G3-2.3 (antibody, human IgG1, kappa, V domains shown)
VH: B2 VH with P41H, G44S
VL: B1 VL with D9Y, L30F, R36K, T40A, W56G, S69T, Y98H, Y99S, L102Y, G106Q
B9: humanized antibody hz28G3-2.4 (antibody, human IgG1, kappa, V domains shown)
VH: B2 VH with T24A, S28T, P41H, G44S, T59Y, K65Q
VL: B1 VL with D9Y, L30F, R36K, T40A, W56G, S69T, Y98H, Y99S, L102Y, G106Q
B10: humanized antibody hz40F6-1.3 (antibody, human IgG1, kappa, V domains shown)
VH: QVQLVESGGGVVQPGRSLRLSCAASGFTLTSYGVYWVRQAPGKGLEWVAVVWAGGNTNYADALKGRFTISKDNSKSTLYLQMNSLRAEDTAVYYCARDRGRLLAMDYWGQGTLVTVSS
VL: B1 VL with R36K, T40A, W56G, S69T, A97D, Y98H, Y99F, Y100F, L102F, G106Q
B11: humanized antibody hz40F6-1.1 (antibody, human IgG1, kappa, V domains shown)
VH: B10 VH with A62S, L63V
VL: B1 VL with R36K, T40A, W56G, S69T, A97D, Y98H, Y99F, Y100F, L102F, G106Q
B12: humanized antibody hz40F6-1.2 (antibody, human IgG1, kappa, V domains shown)
VH: B10 VH with A60N, D61S, K64M, G65S
VL: B1 VL with R36K, T40A, W56G, S69T, A97D, Y98H, Y99F, Y100F, L102F, G106Q
B13: humanized antibody hz40F6-1.4 (antibody, human IgG1, kappa, V domains shown)
VH: B10 VH with A23T, A24V, A60N, D61S
VL: B1 VL with R36K, T40A, W56G, S69T, A97D, Y98H, Y99F, Y100F, L102F, G106Q
B14: humanized antibody hz40F6-2.1 (antibody, human IgG1, kappa, V domains shown)
VH: B10 VH with A62S, L63V
VL: B1 VL with R36K, T40A, W56G, A97D, Y99F, Y100F, L102F, G106Q
B15: humanized antibody hz40F6-2.2 (antibody, human IgG1, kappa, V domains shown)
VH: B10 VH with A60N, D61S, K64M, G65S
VL: B1 VL with R36K, T40A, W56G, A97D, Y99F, Y100F, L102F, G106Q
B16: humanized antibody hz40F6-2.3 (antibody, human IgG1, kappa, V domains shown)
VH: B10 VH
VL: B1 VL with R36K, T40A, W56G, A97D, Y99F, Y100F, L102F, G106Q
B17: humanized antibody hz40F6-2.4 (antibody, human IgG1, kappa, V domains shown)
VH: B10 VH with A23T, A24V, A60N, D61S
VL: B1 VL with R36K, T40A, W56G, A97D, Y99F, Y100F, L102F, G106Q

Biological target: human CLDN18.2 (human)
Test: cell-based or functional assay

Binder	ADCC EC50, PBMC effector cells, KATOIII target cells [nM]	ADCC Maximum killing (%), PBMC effector cells, KATOIII target cells [%]
B1	~0.0155	19.5

Biological target: human CLDN18.2 (human)
Test: cell-based or functional assay
Remark: another data set of the same source

Binder	ADCC EC50, Jurkat-CD16a v158-NFAT-luciferase effector cells, KATOIII target cells [nM]	ADCC EC50, Jurkat-CD16a v158-NFAT-luciferase effector cells, U2OS-CLDN18.2 target cells [nM]
B2	0.139	0.016
B3	0.396	0.015
B4	0.217	0.023
B5	0.184	0.017
B6	0.184	0.019
B7	0.861	0.017
B8	0.209	0.019
B9	0.275	0.017

Biological target: human CLDN18.2 (human)
Test: cell-based or functional assay
Remark: another data set of the same source

Binder	ADCC EC50, Jurkat-CD16a v158-NFAT-luciferase effector cells, NIH-3T3-CLDN18.2 target cells [nM]	ADCC EC50, Jurkat-CD16a v158-NFAT-luciferase effector cells, NUGC-4 target cells [nM]
B10	0.017	0.023
B11	0.013	0.045
B12	0.03	0.019
B13	0.024	0.017
B14	0.012	0.149
B15	0.01	0.019
B16	0.014	0.028
B17	0.014	0.03

Biological target: human CLDN18.2 (human)
Test: cell-based or functional assay
Remark: another data set of the same source

Binder	ADCC EC50, PBMC effector cells, KATOIII target cells [nM]	ADCC EC50, PBMC effector cells, NIH-3T3-CLDN18.2 target cells [nM]	ADCC EC50, PBMC effector cells, NUGC-4 target cells [nM]	ADCC Maximum killing (%), PBMC effector cells, KATOIII target cells [%]	ADCC Maximum killing (%), PBMC effector cells, NIH-3T3-CLDN18.2 target cells [%]	ADCC Maximum killing (%), PBMC effector cells, NUGC-4 target cells [%]
B2	0.048	0.33	0.07	11.5	28.1	4.9
B4	1.03	0.51	4.6	25.3	44.3	19
B13	0.1	0.31	0.12	13.3	24.6	2.83
B1	0.03	0.18	0.3	10.6	22.6	4.34

Biological target: human CLDN18.2 (human)
Test: cell-based or functional assay
Remark: another data set of the same source

Binder	CDC EC50, NIH-3T3-CLDN18.2 target cells [nM]
B2	0.29
B4	0.31
B1	0.25

Biological target: human CLDN18.2 (human)
Test: cell-based or functional assay
Remark: another data set of the same source

Binder	CDC EC50, NIH-3T3-CLDN18.2 target cells [nM]
B10	0.84
B11	1.47
B12	0.54
B13	0.55
B14	3.8
B15	0.53
B16	0.9
B17	0.89

Biological target: T1, human CLDN18.2 (human)
T1 construct: also called claudin18.2
Test: FACS, NUGC-4 cells (natural CLDN18.2)
Description: (§1) Based on the FACS method, the binding activity of anti-CLDN18.2 humanized antibodies for the cell lines KATOIII (Cell Bank of the Chinese Academy of Sciences) and NUGC-4 (Cell Bank of the Chinese Academy of Sciences) naturally expressing CLDN18.2 was analyzed. […] See Example 3 for the specific method.

Binder	EC50 [nM]
B2	11.1
B3	14.1
B4	10.5
B5	14
B6	12.1
B7	12.4
B8	11.9
B9	14.2

Biological target: T1, human CLDN18.2
Test: FACS, NUGC-4 cells (natural CLDN18.2)
Remark: another data set of the same source
Description: as §1

Binder	EC50 [nM]
B10	17.7
B11	20
B12	16
B13	10.6
B14	18.7
B15	14.9
B16	16.2
B17	13.3

Biological target: T1, human CLDN18.2
Test: FACS, KATOIII cells (natural CLDN18.2)
Description: as §1

Binder	EC50 [nM]
B2	8.11
B3	5.84
B4	7.01
B5	5.83
B6	7.25
B7	5.92
B8	6.54
B9	5.62

Biological target: T1, human CLDN18.2
Test: FACS, KATOIII cells (natural CLDN18.2)
Remark: another data set of the same source
Description: as §1

Binder	EC50 [nM]
B10	7.9
B11	8.24
B12	7.42
B13	6.44
B14	8.77
B15	7.54
B16	6.13
B17	6.38
